Data as given in PMC5584238.

Target: ectodomain of CD147 (CD147^ECT, residues 22-205), wild type (human) (UniProt P35613)

ectodomain of CD147 (CD147^ECT, residues 22-205), wild type (from UniProt P35613-2 22-205) (domain or fragment)
MMP-2 production of fibroblasts co-cultured with K7721-WT cells (full-length WT CD147 on cells) treated with different concentrations of Cu2+ up to 30 uM, gelatin zymography: 2.2 fold
